The results in this text go back to publication PMC8852740, “Neutralization of Typhoid Toxin by Alpaca-Derived, Single-Domain Antibodies Targeting the PltB and CdtB Subunits” (Infection and Immunity, 2021).

Sequences and labels used below:
B1: T2E7 (VHH)
VHH: QLQLVESGGGLVQPGGSLRLSCAASGFTLDYYAIGWFRQAPGKERERVSCISGRDGGTYYADSVKGRFAISRDNAQNTVYLQMSRLKPEDTAAYYCAADYADNYCTGSFPPDYWGQGTQVTVSS
notes: also called anti-PltB VHH T2E7; source: E. coli Rosetta-gami 2(DE3)pLacI, pET32b+, purified (Ni-NTA)
B2: T4E8 (VHH)
VHH: QLQLVESGGGLVQAGGSLRLSCAASGMSFSTYTMGWYRQAPGKRRGLVATISSGGSTNYADSVKGRFTISRDNAKDTVYLQMNSLKPEDTAEYYCNVKGDYQTPNMGYWGQGTRVTVSS
notes: also called anti-CdtB VHH T4E8; source: E. coli Rosetta-gami 2(DE3)pLacI, pET32b+, purified (Ni-NTA)
B3: T2G9 (VHH)
VHH: QVQLVETGGGSVQAGGSLRLSCAASGFTFDDYAIGWFRQAPGKEREMILCINSRGGSTSYYADSVKGRFTVSVNSAKNTAYLQMNSLKPEDTAVYYCAADVTPPHSCNALDAWGQGTLVTVSS
notes: also called anti-PltB VHH T2G9; source: E. coli Rosetta-gami 2(DE3)pLacI, pET32b+, purified (Ni-NTA)
B4: T4E5 (VHH)
VHH: QLQLVETGGGLVQPGGSLKLSCVASGSIFSINVMGWFRQASGKQREVVAQITRGGGTIYADSVKGRFTISRDDAKNSVYLQMNSLNPEDTAVYLCNADLMQGIDSEYEDYWGQGTQVTVSS
notes: also called anti-CdtB VHH T4E5; source: E. coli Rosetta-gami 2(DE3)pLacI, pET32b+, purified (Ni-NTA)
B5: T4C4 (VHH)
VHH: QVQLAESGGGLVQPGGSLRLSCAASGSIFSINVMGWYRQAPGKQRESVAVITRGGGTMYADSVKGRATISRDSAKNTVYLQMNSLKPEDTAVYYCNADLMQAVDSEYEDYWGQGTQVTVSS
notes: also called anti-CdtB VHH T4C4; source: E. coli Rosetta-gami 2(DE3)pLacI, pET32b+, purified (Ni-NTA)
B6: T4C12 (VHH)
VHH: QVQLAESGGGLVQPGGSLRLSCAASGSIFSINVMGWYRQAPGKQREFVAVITRGGSTDYADSVKGRFTISRDNAKNTVYLQMNSLKPEDTAVYYCNADLMQTSASEYEDCWGQGTQVTVSS
notes: also called anti-CdtB VHH T4C12; source: E. coli Rosetta-gami 2(DE3)pLacI, pET32b+, purified (Ni-NTA)
B7: T2F11 (VHH)
VHH: QVQLVETGGGLVQPGGSLRLSCVLSGSDLAYYNVGWFRQAPGKEREGVACTSRVSDTKYYADSVKARFTVARDNAKNTVNLQMNSLRPEDTAVYSCALLRWCTTEGSDSEGMGHWGKGTLVTVSS
notes: also called anti-PltB VHH T2F11; source: E. coli Rosetta-gami 2(DE3)pLacI, pET32b+, purified (Ni-NTA)
B8: T2G4 (VHH)
VHH: QVQLVESGGGSLRLSCAVFGRTFSGDAVGWFRQAPGKEREFVAAINWNGRSTDYADSVKGRFTISRDDTENTVYLQMNSLKPEDTAVYYCATSREDYGSSFLRGSYDYLGQGTQVTVSS
notes: also called anti-PltB VHH T2G4; source: E. coli Rosetta-gami 2(DE3)pLacI, pET32b+, purified (Ni-NTA)
B9: T2E1 (VHH)
VHH: QVQLAESGGGFVQAGGSLRLSCVESGRSFSVFAMGWFRQAPGKERELVAAISWRGDSTYYADLVKGRFTISRDNAKNAVYLQMNSLKPEDTAVYYCAADRSDYVVTHEYDYWGQGTQVTISP
notes: also called anti-PltB VHH T2E1; source: E. coli Rosetta-gami 2(DE3)pLacI, pET32b+, purified (Ni-NTA)
B10: T2F7 (VHH)
VHH: QVQLVESGGGLVQPGGSLRLSCAASGFDFSRSTLSWVRQSPGKDFEWVSDINSGSTLTNYGDSVKGRFTTSRDNAKNTLYLQMNSLKPEDTAVYYCVKGMWITRDQPRGQGTQVTVSS
notes: also called anti-PltB VHH T2F7; source: E. coli Rosetta-gami 2(DE3)pLacI, pET32b+, purified (Ni-NTA)
B11: T2F2 (VHH)
VHH: QVQLAESGGGLVQAGGSLRLSCVASGRTFSSYAMGWFRRAPGKEREFVASILWSDGSAAYADSVEGRFTISRDNAKNTVHLQMNSLQPEDTAVYYCAAEARGSGTRWGNEYDYWGQGTQVTVSS
notes: also called anti-PltB VHH T2F2; source: E. coli Rosetta-gami 2(DE3)pLacI, pET32b+, purified (Ni-NTA)
B12: T2G11 (VHH)
VHH: QVQLVETGGLVQAGGSLSLSCAVSGRTFNLLHLAWFRQAPGNERDLVASISGSLGSVYYADSVRGRFTISRDAANNTVYLQMNSLKLEDTAVYYCAGAPIFDRFSSSSSSYDYWGQGTQVTVSS
notes: also called anti-PltB VHH T2G11; source: E. coli Rosetta-gami 2(DE3)pLacI, pET32b+, purified (Ni-NTA)
B13: T2F6 (VHH)
VHH: QLQLAESGGGLVQPGGSLRLSCAVSGFMVNSYDIGWFRQAPGKAREGISCINTSGDTPNYADSVKGRFTISRDNAKNMVYLQMNSLKPEDTATYFCAANRMTRCSDYNGYPYWGQGTQVIVSS
notes: also called anti-PltB VHH T2F6; source: E. coli Rosetta-gami 2(DE3)pLacI, pET32b+, purified (Ni-NTA)
B14: T2G1 (VHH)
VHH: QVQLAESGGGLVQAGGSLRLSCAASGLTFDKYAIGWFRQAPGKERELVSCISTNYGSTYYADSVKGRFTISTDNAKNTVYLQMNGLKPEDTAVYYCAADTRSSWPSCNALDTWGQGTLVTVSS
notes: also called anti-PltB VHH T2G1; source: E. coli Rosetta-gami 2(DE3)pLacI, pET32b+, purified (Ni-NTA)
B15: T2F3 (VHH)
VHH: QVQLAETGGALVQTGGSLRLSCAVSGRNSEIQGLGWYRQAPGKEREFVATINWRSGATYYDDSVKGRFSISRDNAENTVSLQMNDLKPDDTAVYYCGAGMSPIARMDYWGQGTQVTVSS
notes: also called anti-PltB VHH T2F3; source: E. coli Rosetta-gami 2(DE3)pLacI, pET32b+, purified (Ni-NTA)
B16: T4B5 (VHH)
VHH: QLQLAESGGGLVQPGGSLRLSCAASGSIFSINVMGWYRQVPGKQREWVASITRGGGTLYADSVKGRFTISRDSAKNTVYLQMNSLKPEDTAVYYCNADLMEDSDSDYHEYWGQGTQVTVSS
notes: also called anti-CdtB VHH T4B5; source: E. coli Rosetta-gami 2(DE3)pLacI, pET32b+, purified (Ni-NTA)
B17: T4F3 (VHH)
VHH: QLQLVETGGGLVQPGGSLTLSCAASGFTLNYWHMGWYRQAPGKQRELVATISGHGITNYADSVKGRFTISRDDAKNSVYLQMNSLKPEDTAVYYCNFISRTNDWGQGTQVTVSS
notes: also called anti-CdtB VHH T4F3; source: E. coli Rosetta-gami 2(DE3)pLacI, pET32b+, purified (Ni-NTA)
B18: T4C11 (VHH)
VHH: QLQLVETGGGLVQPGGSLRLSCAASGSIFSINIMGWYRQAPGKQRESVAVITRGGGTMYADSVKGRFTISRDSAKNTVYLQMNSLKPEDTAVYYCNADLMQAVDSEYEDYWGQGTQVTVSS
notes: also called anti-CdtB VHH T4C11; source: E. coli Rosetta-gami 2(DE3)pLacI, pET32b+, purified (Ni-NTA)

Several values for one entry are separate records, joined by “and”; a condition that tells them apart may be missing. Equal values may be shown once.

One may read the Kd as the equilibrium constant for the complex coming apart. A word on the koff: it is a measure of how fast the partners let go of each other. High values mean fast dissociation, low ones slow dissociation. One may read the kon as a measure of how fast the partners come together. Low values mean slow association, high ones fast association.

The target of the first assay is T1, typhoid toxin (A2B5 holotoxin: CdtB, PltA and a PltB homopentamer), biotinylated (Salmonella enterica serovar Typhi; …, UniProt Q8Z6A7;Q8Z6A4;Q8Z6A3).
T1 construct: also called TyT; biotinylated typhoid toxin; not shown: His6, C-terminal, kept; copies: 1 + 1 + 5
The experiment in a line: BLI; Octet Red96e; […] (2 µg/mL) […]; association 5 min, dissociation 30 min; 25°C; 1:1 model; […]. The note with it: both partners purified. A general note: In BLI a coated tip is dipped into the sample, and binding shifts an interference pattern.
In the case of B1, the Kd is 0.629 nM and 0.618 nM and 0.911 nM; the koff was 0.000278 s⁻¹ and 0.000313 s⁻¹ and 0.000369 s⁻¹; the kon was 443000 M⁻¹ s⁻¹ and 507000 M⁻¹ s⁻¹ and 405000 M⁻¹ s⁻¹.
As for B2, the Kd was 2.03 nM and 4.44 nM; the on-rate (kon) was 53300 M⁻¹ s⁻¹ and 73600 M⁻¹ s⁻¹.
B3: the association rate constant (kon) was 155000 M⁻¹ s⁻¹ and 139000 M⁻¹ s⁻¹ and 105000 M⁻¹ s⁻¹.

A further assay addresses T2, typhoid toxin (A2B5 holotoxin: CdtB, PltA and a PltB homopentamer), biotinylated (Salmonella enterica serovar Typhi; …, UniProt Q8Z6A7;Q8Z6A4;Q8Z6A3).
T2 construct: also called TyT; biotinylated typhoid toxin; not shown: His6, C-terminal, kept; copies: 1 + 1 + 5
Described as above. The following applies: both partners purified.
In the case of B4, the kon is 424000 M⁻¹ s⁻¹ and 382000 M⁻¹ s⁻¹ and 306000 M⁻¹ s⁻¹.
On to B5, for which the Kd was 0.284 nM and 0.11 nM; the off-rate (koff) was 0.000264 s⁻¹ and 0.00026 s⁻¹; the kon is 929000 M⁻¹ s⁻¹ and 2.36e+06 M⁻¹ s⁻¹.
As for B6, the Kd was 2.84 nM and 1.55 nM; the koff was 0.00121 s⁻¹ and 0.00243 s⁻¹.

A further assay deals with T3, PltB homopentamer, biotinylated (Salmonella enterica serovar Typhi; …, UniProt Q8Z6A3, biotinylated with EZ-link NHS-Biotin (sites not given)).
T3 construct: also called PltB5; pentameric PltB subunits
The experiment in a line: ELISA; […] (30 min, 37°C) […]. The following applies: both partners purified. (In general: An ELISA detects its analyte on a solid surface through an enzyme-linked reagent.)
B1: the binding result is given as “binds”.
Still for that read-out and setting: in the case of B7 it was “binds”; in that of B8, “binds”.
As for B9, the binding result was “binds”.
Consider B10, for which the binding result is “binds”.
The same measure, in the same setting: then B3, with “binds”; and B11, with “binds”; and B12, with “binds”.
On to B13, for which the binding result was “binds”.
Same read-out and setting: then B14, with “binds”; and B15, with “binds”.

A further assay concerns the target T2, typhoid toxin (A2B5 holotoxin: CdtB, …). The experiment in a line: ELISA; […] (30 min, 37°C) […]. The following applies: both partners purified.
In the case of B16, the binding result is “binds”.
Same read-out and setting: in the case of B17 it was “binds”.
B18: the binding result is recorded as “binds”.
